Key:
[1] = biological target: T1, VAPA (Rattus norvegicus, UniProt Q9Z270); experiment: Peptide spot array (far western) of binding to VAPA, cell-free; details: lysate of VAPA-transfected HEK293 cells (FIG. 11A)
T1 construct: pEGFP-N1-VAPA; 1-242 (Addgene #18874); host or cells: HEK293 cells; whole lysate at 1 mg/ml total protein overlaid on the peptide arrays
T1 sequence (Q9Z270 8-249): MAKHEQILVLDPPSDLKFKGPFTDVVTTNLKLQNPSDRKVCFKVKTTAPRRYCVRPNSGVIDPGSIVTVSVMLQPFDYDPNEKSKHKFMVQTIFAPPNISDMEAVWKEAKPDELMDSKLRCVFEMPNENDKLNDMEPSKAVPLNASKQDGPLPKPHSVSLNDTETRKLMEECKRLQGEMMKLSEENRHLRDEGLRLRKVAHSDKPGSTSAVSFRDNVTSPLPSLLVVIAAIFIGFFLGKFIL
Method: Standard 9-fluorenylmethoxy carbonyl chemistry was used to synthesize peptides and spot them onto Celluspots nitrocellulose disks prederivatized with a polyethylene glycerol spacer (Intavis), using the Respep peptide synthesizer. The peptides were spotted on 20 membranes fitted on microscope glass slides (Intavis) using an Intavis MultiPep robot. For hybridization and immunoblotting of arrays, Celluspots slides were washed in TBST (50 mM Tris-HCl, pH 7.4, 150 mM NaCl, 0.1% Tween 20) for 10 minutes, […] blocked for 1 hour at room temperature (RT) with gentle shaking in TBST containing 5% nonfat dry milk. Lysates from HEK293 cells transfected as before (Yeh et al., J Neurosci. 37: 5648-5658, 2017; Yeh et al., Proc Natl Acad Sci USA. 116: 15696-15607, 2019; Dustrude et al., Proc Natl Acad Sci USA. 113: E8443-E8452, 2016) with pEGFP-N1-VAPA; 1-242 (Addgene #18874) were made in 20 mM Tris, 50 mM NaCl, 2 mM MgCl2, 1% Tergitol, 0.5% sodium deoxycholate, 0.1% sodium dodecyl sulfate with protease (Cat #B14002, Bimake), phosphatase (Cat #B15002, Bimake) inhibitor cocktails and 5 U/ml of universal nuclease (Cat #88702, Thermofisher) added extemporaneously. The concentration of lysates was measured by BCA (Cat #23227, Thermofisher) and peptide arrays were incubated with 1 mg/ml of total protein overnight at 4° C. (Yeh et al., J Neurosci. 37: 5648-5658, 2017; Yeh et al., Proc Natl Acad Sci USA. 116: 15696-15607, 2019; Moutal et al., Pain. 158: 2203-2221, 2017). Peptide arrays were washed 3 times for 5 minutes at RT with TBST and incubated with the primary antibody anti-VAPA (RRID AB_2722707; UC Davis/NIH NeuroMab Facility) for 2 hours at RT with gentle shaking in TBST, 5% BSA. After washing with TBST, the membranes were incubated in secondary antibody (IRDye® 800CW goat anti-mouse IgG secondary antibody; RRID AB_621842; Li-Cor) for 45 minutes, washed 3 times for 5 minutes in TBST, and visualized by infrared fluorescence (Li-Cor). Four independent peptide spot arrays were used in this study. Fluorescence intensity was analyzed with Image studio (Li-Cor).
Kv2.1 and Kv2.2 channels are recruited to ER-PM junctions via C-terminal PRC-mediated interaction with vesicle-associated membrane protein (VAMP)-associated protein A/B (VAPA/B) (Kirmiz, et al., J Neurosci. 38: 7562-7584, 2018; Johnson et al., Proc Natl Acad Sci USA. 115: E7331-E7340, 2018; Johnson, et al., Channels (Austin). 13: 88-101, 2019). This process occurs at non-canonical FFAT binding motifs within the PRC domains of Kv2.1 and Kv2.2 (FIG. 7B), which are recruited to the FFAT binding domain on VAPA/B (Kirmiz, et al., J Neurosci. 38: 7562-7584, 2018; Johnson et al., Proc Natl Acad Sci USA. 115: E7331-E7340, 2018; Johnson, et al., Channels (Austin). 13: 88-101, 2019). […]

[2] = biological target: T2, Kv2.1 surface clusters (Rattus norvegicus, UniProt P15387); experiment: Kv2.1 surface cluster density in live Kv2.1-GFP-transfected cortical neurons treated with TAT-linked peptides; type: cell-based; details: 10 μM
T2 construct: expressed in transfected cells; host or cells: primary rat cortical neurons (E16-17 Sprague-Dawley), Lipofectamine 2000
T2 sequence (P15387 1-857): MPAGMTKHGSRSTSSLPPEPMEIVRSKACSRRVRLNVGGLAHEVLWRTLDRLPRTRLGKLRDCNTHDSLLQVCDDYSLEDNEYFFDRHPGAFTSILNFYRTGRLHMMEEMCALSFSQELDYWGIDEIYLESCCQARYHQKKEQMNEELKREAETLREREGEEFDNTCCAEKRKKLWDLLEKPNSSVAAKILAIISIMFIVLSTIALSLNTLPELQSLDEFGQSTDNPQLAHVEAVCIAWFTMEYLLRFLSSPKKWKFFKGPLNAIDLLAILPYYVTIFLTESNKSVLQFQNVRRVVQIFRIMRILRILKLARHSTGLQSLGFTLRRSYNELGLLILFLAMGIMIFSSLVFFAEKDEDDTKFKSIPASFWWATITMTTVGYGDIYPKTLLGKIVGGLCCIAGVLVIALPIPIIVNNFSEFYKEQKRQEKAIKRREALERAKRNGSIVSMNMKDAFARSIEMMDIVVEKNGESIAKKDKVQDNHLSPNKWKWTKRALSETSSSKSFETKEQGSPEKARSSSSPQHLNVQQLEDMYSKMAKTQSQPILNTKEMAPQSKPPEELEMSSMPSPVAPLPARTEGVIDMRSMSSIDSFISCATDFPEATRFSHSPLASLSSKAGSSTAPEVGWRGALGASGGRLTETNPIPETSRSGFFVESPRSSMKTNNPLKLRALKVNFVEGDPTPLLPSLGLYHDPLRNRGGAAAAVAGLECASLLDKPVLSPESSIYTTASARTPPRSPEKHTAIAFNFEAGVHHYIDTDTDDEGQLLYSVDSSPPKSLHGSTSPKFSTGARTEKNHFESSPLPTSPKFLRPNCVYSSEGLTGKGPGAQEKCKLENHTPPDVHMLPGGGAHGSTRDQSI
Method: In vitro experiments utilized primary cortical neuronal cultures prepared from embryonic day 16-17 Sprague-Dawley rats of either sex in a protocol described previously (McCord et al., J Physiol (Lond). 592: 3511-3521, 2014). Timed-pregnant rats (Charles River Laboratories, Wilmington, Mass.) were sacrificed by CO2 inhalation. Embryonic cortices were dissociated with trypsin (0.6 mg/mL) and cells plated in sterile 6-well plates on poly-L-ornithine-coated glass coverslips at a density of 670,000 cells per well. Cytosine arabinoside (1-2 μM) was utilized to inhibit non-neuronal proliferation on day 14 in vitro (DIV); cultures were utilized at 21-25 DIV.
; Invitrogen, Carlsbad, Calif.). […]; Thermo Fisher Scientific, Waltham, Mass.). […]. Cultures were utilized 18-24 hours following transfection. cDNA amounts for each transfection experiment are described below for each figure. FIG. 1: 0.375 μg/well Kv2.1-GFP plasmid, 0.495 μg/well pcDNA3 vector plasmid, and 0.63 μg/well of either DP-1 or Sc-1, or Kv2.2 CT-expressing plasmid. FIGS. 2, 8, 9, 10, 12: 0.375 μg/well Kv2.1-GFP plasmid, 0.15 μg/well tdTomato plasmid (from Gerhart Ryffel; Addgene plasmid #30530), and 0.975 μg/well pcDNA3 vector plasmid.
To analyze Kv2.1 distribution in live primary cortical neurons, cells were transfected with both a tdTomato construct and a GFP-tagged Kv2.1 construct (O'Connell, et al., J Neurosci. 26: 9609-9618, 2006) and imaged on a Nikon A1+ confocal microscope (Nikon, Tokyo, Japan). Cells were chosen at random by looking only at the tdTomato signal (561 nm), in order to avoid bias. At least three separate culture dates were used per experiment and three coverslips were transfected per condition each time. For these experiments, “n” refers to the total number of cells imaged. Five to 15 optical sections (0.5 μm) capturing the cell surface were obtained of single cells at 60× magnification (Schulien et al., J Physiol (Lond). 594: 2647-2659, 2016), creating a maximum-intensity projection (MAX-IP) of Kv2.1-GFP distribution. To analyze Kv2.1 distribution in the cerebral cortex of fixed brain slices, 51-54 image fields were obtained at 60× magnification across 18 sections from three fixed mouse brains per treatment (total of 6 animals). Image fields were captured by first focusing on an area of superficial cortex closest to the cover glass. Next, 24 optical sections (0.5 μm) were obtained moving deeper into the tissue in order to produce a 12 μm maximum-intensity projection for analysis of Kv2.1 distribution. Laser power, HV (gain), offset, pinhole size, and all camera parameters were kept identical between all samples in a given experiment. Nikon Instruments Software Advanced Research (NIS-Elements AR) was utilized to analyze GFP-tagged Kv2.1 channel cluster distribution. For live images of transfected neurons, object count parameters were customized to define a Kv2.1 cluster as an area of high intensity GFP fluorescence (compared to background), measuring 0.05 μm^2 or larger (Schulien et al., J Physiol (Lond). 594: 2647-2659, 2016). Kv2.1 cluster density was calculated by normalizing the number of Kv2.1 clusters counted to the somatic area of each neuron (#Kv2.1 clusters/μm^2). Due to high variability in GFP-Kv2.1 expression between individual neurons, intensity thresholding required cell-specific local-background subtraction. In each neuron analyzed, two populations on Kv2.1-GFP expression were first noted—(a) highly localized signals of clustered Kv2.1 channels, and (b) diffuse background staining that represents freely-dispersed, conducting Kv2.1 channels on the plasma membrane. A small region of interest (ROI) within region (b) was set as the background subtraction standard of the image, creating an optimal signal-to-noise ratio for clustered Kv2.1 channels. […]

[3] = 2 hour treatment, mean±SEM (FIG. 11B)
[4] = 24 hour treatment, mean±SEM (FIG. 11C)

Row | Substance | binding to VAPA in peptide spot array [1] | mean Kv2.1 surface cluster density [2, 3] | mean Kv2.1 surface cluster density [2, 4]
1 | SIDSFTS [DP-2, seven amino acid declustering peptide from Kv2.2 CT] | no binding | – | –
2 | YGRKKRRQRRRDEEFAP [TAT-FFATSc, scramble control peptide of TAT-FFAT] | – | 0.14±0.02 #Kv2.1 clusters/μm^2 of neuronal soma | 0.20±0.01 #Kv2.1 clusters/μm^2 of neuronal soma
3 | EFFDAPE [positive control peptide, a canonical FFAT motif] | strong VAPA binding | – | –
4 | SFISCAT [non-canonical FFAT motif of Kv2.1] | no binding | – | –
5 | YGRKKRRQRRREFFDAPE [TAT-FFAT, TAT-linked derivative of the canonical FFAT motif] | – | 0.15±0.03 #Kv2.1 clusters/μm^2 of neuronal soma | 0.19±0.02 #Kv2.1 clusters/μm^2 of neuronal soma
6 | SFTSCAT [non-canonical FFAT motif of Kv2.2] | no binding | – | –
